The record followed here is patent US20150086564A1 (CENTRE NATIONAL DE LA RECHERCHE SCIENTIFIQUE CNRS, published 2015).

Test [1] addresses T1, recombinant human sPLA2-IIA N1A mutant (human, UniProt P14555 22-144).
T1 construct: also called N1A sPLA2-IIA mutant
T1 sequence: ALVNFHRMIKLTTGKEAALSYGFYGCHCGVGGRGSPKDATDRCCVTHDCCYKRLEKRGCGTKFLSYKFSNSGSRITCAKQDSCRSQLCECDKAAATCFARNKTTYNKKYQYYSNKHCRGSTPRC
As to the kind of experiment: indirect ELISA on coated sPLA2-IIA N1A (50 ng/well), one-site saturation fit, relative Kd.

Test [2] addresses T1, recombinant human sPLA2-IIA N1A mutant. As to the kind of experiment: indirect ELISA on coated sPLA2-IIA N1A, anti-mouse IgG-HRP detection, one-site saturation fit. For orientation: In an ELISA, binding on a coated surface is turned into a signal by an enzyme label.
Test [3] has the same target. As to the kind of experiment: indirect ELISA on coated sPLA2-IIA N1A, streptavidin-HRP detection, one-site saturation fit.

B1: monoclonal anti-sPLA2-IIA antibody #6G2 (antibody, IgG1, V domains shown)
VH: QVQLQQSGAELVKPGASVKLSCKASGYTFTSYDINWVRQRPEQGLEWIGWIFPGDGSTEYNEKFKGKATLTTDKSSSTAYMQLSRLTSEDSAVYFCARWGITAFPLFDYWGQGTALTVSS
VL: DIVLTQSPASLAVSLGQRATISCRASESVDYDGDSYMNWYQQKPGQPPKLLIYAASNLESGIPARFSGSGSGTDFTLNIHPVEEEDAATYYCLQSNEAPWTFGGGTKLEIKR
notes: also called 6G2 antibody
For orientation: Kd means the concentration at which binding is half-saturated. In the case of B1, the Kd in test [1] amounted to 0.124 nM; in test [2], 0.0817 nM.

B2: biotinylated monoclonal antibody #6G2 (antibody, mouse IgG1, V domains shown)
VH: B1 VH
VL: B1 VL
modifications: biotinylated (Pierce kit ref. 21435), sites not stated
notes: also called #6G2-Biot; 6G2-biot
With B2, the Kd in test [3] was 0.22 nM.

B3: monoclonal anti-sPLA2-IIA antibody #9C8 (antibody, IgG1, V domains shown)
VH: DVELVESGGGLVKLGGSLKLSCAASGFTFSSYYMSWVRQTPEKRLELVAAINSNGGSTYYPDTVKGRFTISRDNAKNTLYLQMSSLKSEDTALYYCARQGYGNFFDYWGQGTTLTVSS
VL: DVVMTQTPLSLPVSLGDQASISCRSSQSIVHSNGNTYLYWYLQKPGQSPKLLIYRVSNRFSGVPDRFSGSGSGTDFTLKISRVEAEDMGVYYCFQGTHVPRTFGGGTNLEIKR
notes: also called 9C8 antibody
As to B3, the Kd in test [1] is 1.71 nM; in test [2], 1.17 nM.

B4: biotinylated monoclonal antibody #9C8 (antibody, mouse IgG1, V domains shown)
VH: B3 VH
VL: B3 VL
modifications: biotinylated (Pierce kit ref. 21435), sites not stated
notes: also called biotinylated #9C8
B4: in test [3], the Kd was 3.34 nM.
